Experiment [1] concerns the target full-length RtcR (S. Typhimurium). The experiment in a line: SEC. For orientation: Size exclusion chromatography separates by hydrodynamic size, large species first.
For experiment [2] the target is unchanged. The experiment in a line: SEC. This is another data set of the same source.

Data on one substance can be found in PMC10159003.

The term stoichiometry N denotes a count of units in the complex or per binding partner.

Values joined by “and” are separate entries in the source; they are usually repeats but may differ in a detail not shown here. Identical values can stand only once. Like-named read-outs stand apart in the source and are kept apart here.

As for full-length RtcR (natural protein), the stoichiometry N in experiment [1] was 2 and 6; in experiment [2] it was 2 and 6.
